Target: integrin α3β1 on gastric cancer cells (MKN45, MKN45/CTGF, AGS) (human) (UniProt P26006)
Experiment: cell-based or functional assay

Sequence of UniProt P26006 (P26006 33-1051, chain 1 of 2): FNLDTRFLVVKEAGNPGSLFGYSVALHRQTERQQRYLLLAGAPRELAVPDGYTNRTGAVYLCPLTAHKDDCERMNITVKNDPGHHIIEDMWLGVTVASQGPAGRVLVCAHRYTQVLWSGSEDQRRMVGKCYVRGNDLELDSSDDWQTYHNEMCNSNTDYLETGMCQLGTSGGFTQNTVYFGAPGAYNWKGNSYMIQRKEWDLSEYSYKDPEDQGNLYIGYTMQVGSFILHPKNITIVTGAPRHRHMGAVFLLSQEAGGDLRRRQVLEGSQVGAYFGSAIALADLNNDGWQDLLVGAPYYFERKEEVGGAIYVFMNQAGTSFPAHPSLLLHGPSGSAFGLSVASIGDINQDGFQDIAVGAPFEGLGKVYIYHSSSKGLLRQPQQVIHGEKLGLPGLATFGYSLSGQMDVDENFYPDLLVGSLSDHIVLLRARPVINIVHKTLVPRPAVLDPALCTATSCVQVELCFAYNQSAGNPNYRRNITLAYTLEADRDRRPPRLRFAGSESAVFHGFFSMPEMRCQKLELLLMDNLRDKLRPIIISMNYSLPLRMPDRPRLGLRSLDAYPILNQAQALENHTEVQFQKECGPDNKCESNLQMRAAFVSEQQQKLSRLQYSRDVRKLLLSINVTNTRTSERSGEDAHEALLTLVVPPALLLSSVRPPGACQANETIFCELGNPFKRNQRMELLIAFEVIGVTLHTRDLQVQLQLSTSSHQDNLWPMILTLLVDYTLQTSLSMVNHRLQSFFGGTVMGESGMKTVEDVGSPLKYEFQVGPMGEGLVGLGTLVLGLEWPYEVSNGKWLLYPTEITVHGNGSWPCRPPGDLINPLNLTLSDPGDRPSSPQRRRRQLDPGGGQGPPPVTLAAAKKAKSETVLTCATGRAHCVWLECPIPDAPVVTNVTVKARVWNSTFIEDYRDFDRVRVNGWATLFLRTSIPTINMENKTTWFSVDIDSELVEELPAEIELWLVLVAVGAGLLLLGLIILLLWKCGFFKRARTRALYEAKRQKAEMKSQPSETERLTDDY
Sequence of UniProt P26006 (P05556 21-798, chain 2 of 2, further chain): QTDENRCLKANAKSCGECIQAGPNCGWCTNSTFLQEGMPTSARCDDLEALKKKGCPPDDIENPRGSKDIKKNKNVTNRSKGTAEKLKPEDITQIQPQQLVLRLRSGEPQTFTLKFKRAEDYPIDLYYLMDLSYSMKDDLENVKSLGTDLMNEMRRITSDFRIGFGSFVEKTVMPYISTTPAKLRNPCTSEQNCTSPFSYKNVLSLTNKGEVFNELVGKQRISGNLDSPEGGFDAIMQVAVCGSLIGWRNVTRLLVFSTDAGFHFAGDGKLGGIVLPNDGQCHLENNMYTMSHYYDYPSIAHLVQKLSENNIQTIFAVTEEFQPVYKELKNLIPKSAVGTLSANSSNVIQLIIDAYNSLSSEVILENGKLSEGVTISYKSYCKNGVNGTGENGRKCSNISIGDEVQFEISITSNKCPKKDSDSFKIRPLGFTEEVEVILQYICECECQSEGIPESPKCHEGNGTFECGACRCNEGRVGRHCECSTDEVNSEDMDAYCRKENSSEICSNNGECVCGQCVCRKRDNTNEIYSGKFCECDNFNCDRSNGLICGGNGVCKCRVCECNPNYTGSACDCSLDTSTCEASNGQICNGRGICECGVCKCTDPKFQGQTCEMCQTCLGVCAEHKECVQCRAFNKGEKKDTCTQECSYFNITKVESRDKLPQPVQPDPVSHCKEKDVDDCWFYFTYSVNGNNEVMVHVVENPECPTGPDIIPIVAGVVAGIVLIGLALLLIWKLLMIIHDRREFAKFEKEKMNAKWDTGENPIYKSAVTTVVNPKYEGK

**Q.** How did the adhesion inhibition (MKN45 cells, matrigel adhesion assay, 6 hours post treatment, 50 ng rCTGF) turn out when “recombinant CTGF C terminal (CT) domain (from UniProt P29279 253-349) (ligand)” was run?
**A.** The adhesion inhibition (MKN45 cells, matrigel adhesion assay, 6 hours post treatment, 50 ng rCTGF) was 50%.

**Q.** And the adhesion inhibition (MKN45 cells, matrigel adhesion assay, 6 hours post treatment, 100 ng rCTGF)?
**A.** The adhesion inhibition (MKN45 cells, matrigel adhesion assay, 6 hours post treatment, 100 ng rCTGF) was 70%.

**Q.** What about the adhesion inhibition (MKN45 cells, matrigel adhesion assay, 6 hours post treatment, 200 ng rCTGF) of the same substance?
**A.** Its adhesion inhibition (MKN45 cells, matrigel adhesion assay, 6 hours post treatment, 200 ng rCTGF) is 75%.
